Measured values published in US20180016337A1 (HELIX BIOPHARMA, published 2018).

Molecular target: T1, CEACAM6 antigen (carcinoembryonic antigen related cell adhesion molecule 6) (human, UniProt P40199 35-320)
T1 construct: also called CD66c
T1 sequence: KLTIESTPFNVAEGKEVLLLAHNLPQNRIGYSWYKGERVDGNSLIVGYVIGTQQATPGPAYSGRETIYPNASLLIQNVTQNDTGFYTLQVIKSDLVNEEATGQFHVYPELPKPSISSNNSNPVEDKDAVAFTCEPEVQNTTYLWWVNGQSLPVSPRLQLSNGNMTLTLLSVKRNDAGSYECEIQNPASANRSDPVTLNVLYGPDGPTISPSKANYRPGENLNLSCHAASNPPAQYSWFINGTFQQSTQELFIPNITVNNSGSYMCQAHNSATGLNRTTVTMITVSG
Experiment: SPR, format not stated

B1: 2A3 camelid single domain antibody (anti-CEACAM6) (VHH)
VHH: QVKLEESGGGLVQAGGSLRLSCRTSGRTNSVYTMGWFRQAPGKEREFVAQIMWGAGTNTHYADSVKGRFTISRDSAESTVYLQMNSLKPEDTAVYYCAANRGIPIAGRQYDYWGQGTQVTVSS
notes: Llama sdAb isolated from a whole cancer cell immunized library; also called 2A3 antibody; 2A3 anti-CEACAM6 antibody
With B1 the Kd was 5 nM.
